Results taken from the domain aggregation screens of Martell et al. (2025).

Assay: soluble fraction after stress (log2 fold change); higher = more stays soluble; pooled small domains, quantitative proteomics
Conditions: stress: 75 degC
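Also: 20 min heating vs room temperature control held 20 min.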

| Sequence | soluble fraction (log2) |
| --- | --- |
| HMLKTADAIASVLLTRIQAGEFSAGRLPAERALSEAFSTTRITLREALGKLEAQGMIYRELRRGWFIA | -1.85 |
| HMLLFNPGEVLKGFVLQSGTNNRVLLQIGDSRVIADTQTPLKAGEQLVLRVEETGPKTILQILG | 0.177 |
| HMLLGDYIQKLRNQRGLSQQEFADKLGIGRSTLANYEQNKRSPDYETLIEISKFFNVSIDELLGV | -1.05 |
| HMLLLASTPAEQTIIQLLAEGWRDGDQLQQRSHLSAADFSTALTMLEVNGSIKPLGANHWALTH | -1.26 |
| HMLLPANLTKSQRNIAERVARGQSNLEIAADLNITERTVKAHLTSIYEKTKTGNRLNLALLINLG | -0.289 |
| HMLLPGEELRVMIIQEGKEYGQGVGYLDDGTMVVVEDGQRALNRTENVVVTKVLQTTAGRMIFAK | -0.71 |
| HMLLQENRKLHSKLEELQLISRAKAVLIEYLKLTEPQAHRYIEKQAMDLGLTRPQVALNILKTYE | -1.38 |
| HMLLQTAVISTDIVNMRAEPTTNSSVIRKLTKGSDITINQEKDGWYKISDDQGNSGWIVTWAAKPT | -0.208 |
| HMLMDVRVPDIIGVEINQAKEILTASSLLIGKITYVSLPEIEKDLVIETSVLAGRRVSAGTVIDITVNKE | -2.09 |
| HMLMKPQKTRDVLRYLKSIGWVRLRGGQGSHEIWGLPDGSIRAVIPAGHREISAGVLMQLKRAGVDVPTQW | -1.25 |
| HMLMLTPGQIAQTLDVSTATVRRWSARYARHLSPNTPGKKRSYTVDDLAVLTRVRDLSATGTPLAQIDQAL | -2.11 |
| HMLMLTPGQVSNSLNVSTATVRRWSARFARHLSPQPPNRKRSYTPDDLATLARVRDLSASGTSLAQIDIAL | -2.59 |
| HMLMRSPDFLIGWFQNLVAKRETFNDQVQAKNLIEAGKQHIQGEDFDRLLEVNRRLFSLLPQREQE | 0.177 |
| HMLNAPFGFRIEDDTLIPIPEEAKVVRQIFRYYLQGMGFGKIAQELNGQDVPGKPWGKERIKYILSNEKYI | -2.47 |
| HMLNERQKKIIKILKDNKNWMTGKELSEFLNVSDRTIRSDIEYINRYNNALIESNVKNGYHLNFE | -0.233 |
| HMLNIVTIFEEQFGRPLSPIELNIIKDWKESDYSDEMIVKALKEAVKSQVLNFRYVEGILNNWAKNG | -0.783 |
| HMLNLNEAEKSIYVLIKKNESNNLNKVKEDSNLSNKAWDKGIKNLVKNNLVKVVKSNEGLFIQLV | -0.636 |
| HMLNLNILTDKEKFIAKLISRGLSDSLIAKELYISISTVRSHVNSIYGKTNIKNRSHLASSFLYFELGNLL | -0.204 |
| HMLNPMILLTKGGENIRLDKFLSSHLSDLSRTQIQKMVKEGLVLVNGEPSKVGLKLDGSETIQYTLPK | -0.18 |
| HMLNSISIKTNKKIDFLEKNEHLVNFVYEKETMEHIYNLSYENKKDLQELQNKLSDIEGIIKINTDL | 0.651 |
| HMLPDVSITGHIFIRSGSRLNRIFVGESTYHVGDMLDGKWLIESINSDSLELRSGTQTTELPL | -2.83 |
| HMLPDYLIELKKKADSGDAVSQNDIGNIYLYGLPRVNIYPDEKNIGIGIDYLYKAAWQDQVNAMTTI | -0.098 |
| HMLPELQPGQTFSARIQQALPDNTYRALVAGKQLTLQLPEGAKAGDELELVVLDRSARVIIARQVD | -0.691 |
| HMLPGERFKVKIAQAGKEKKQGIGYLNDGTMVVIENGIEKVGEEVEAVVIKVIQSSAGKIIFSEVAK | 0.0862 |
| HMLPGKEIPLPEFLREAFARNEPALENFQNLAPSYRRQYILWITSAKTPETVQKRISESIGLLKENRKLGM | -0.616 |
| HMLPGLGPIERAQFMLQAIPGISPTRSAALIDKFGSIAGIAQASIKDIQTIEGIGKKTATTLYEVLNAG | -0.39 |

| Sequence | soluble fraction (log2) |
| --- | --- |
| HMLPISGDDRDALDMAALILKQYDSLPILKEFANVVTKLQTVLDGVVSNSIEARRQMIQFEE | 0.0649 |
| HMLPITPGQKYKFVVKSAEEAAAIIRDKLGEMAQVISVRQVEGEGLARFLKSPKLEIIAQVPVA | -0.35 |
| HMLPLGSNEYETAVIKHLASGVQDADEIQRLTGIDQTSLNTALTMLELAGTIRPLGNNHWTL | 0.459 |
| HMLPLHFIEIVSLKKIDTLTKRKELINYAFSKNEKTYIYKLAFKKKSELDNLYKEINLFNEIINIDIRHS | -0.577 |
| HMLPLPRFASLDSSEANLRAGPGKDYPILWVYQRKGLPVEIIQEFDTWRRIRDRDGTVGWVQQNLL | -0.351 |
| HMLPNIKSEMEILGDNAKARLEAAELWSKKYLSNEAYDTMSKLATTADGVKAIEEIMNITKS | 0.0754 |
| HMLPSELLAQQRIVVQPGHNLWRIARATYGRGARYTVIYQANREQIADPNRIFPGQVFALPAA | -0.102 |
| HMLPSMENWLGELSFWQTPWWERRDFSTFDNIAQSKEELDEFMSRDDNGAILERMQDPINTIEAE | -0.285 |
| HMLQGKVSFFNDEKGYGFIKDNNSKDSYFVHINKVEGEIAEGDKVTFELEKGPKGLVAANVKR | 0.0967 |
| HMLQIGDEEFIENIVKQVIDENQKAVDDYKKGKEKVMAFLIGQVMKKTKGKVNSEIVEKTIKKL | -0.211 |
| HMLQKEVHQQIQQALRALPYHQRTAIVLYYYEGMSVKEIAQATGSMQGTVQSRLFFARKKLRPILESILKK | -1.15 |
| HMLQQNRAVEAEQLARKGLSYAQSNIQQAALWRLVAEATEQQGKVDAALNAKNKAMQLEMAG | 0.248 |
| HMLRTLSTSEFAEAIGISESSARRLADSGDLRIRRTKGGHRKIPAEEAIRYAREIQATVVRPDLLGLST | -0.0139 |
| HMLRVVSTRQAFDIVRGWADAHPQDPEHNKTLDELEELAKKEVWDDWSRTNEIAERLNALLVSIGANVRTA | -0.961 |
| HMLSDEEKMAALNEQARQRGFTISPGVLPYLITHYQRDMHSLSMILDALDRYSLQTKRTITLPLLHDLLQQ | -1.04 |
| HMLSKEFRFFTYLLESYAQHKNTTAGAVLKTLDEKGLTDFVYKMYDLYHVEAIENAYMDLDSLIATGKPA | -3.64 |
| HMLSKGDRVSWDTPQGRTQGEVVEKKTKDFEHDGQKFTASDDDPAFIVKSEKSGAEAAHKGSALNK | -0.000228 |
| HMLSLGIMEADMLKTGKHTISGISKATPEQRQKIDSDIEELKKKYPEKNITSKVENDNLIVESGVTAP | 0.029 |
| HMLSNKIEQLRKEKGYTFAKLSELSGISTGRLSDLATGKRNNPTMDTLIKLADALDVTLDELVGR | -0.26 |
| HMLSNYIGMTLGEAKRNLGQGVNITVNGPNNDNAEVTGQDPTSGSSFDKSKDTITLTT | 0.148 |
| HMLSPAQSLLLRTAARRPDGRVIPPDTLRGGARVKVLTSLLQRGWIEPVDGGHVLTDAGYAAIG | -0.819 |
| HMLSTNDYNENKNKLIKDFEIKFIIKHLKLNKGNVAATARSINFHPVSLRQKIAKLGIDVDEVMAG | -2.59 |
| HMLSTQEYIKKNIENGSWKVGEKIPSENNLTEILGVSRASIRVAIQQFIALDVLNSIHGKGTFVKTNNIMG | 0.112 |
| HMLTALTDREEEILVLLAHNLSNKEIAKRLNLSVNTVRNHTSHIYEKLNVTSRRKAITLAQSLHLLPP | -1.48 |
| HMLTAPMPGIVRQVNVDTGQKVRKGQPLMVLEAMKMEHQIIAPQAGKIEAIHYNEGDRVEMGSVLISIF | -1.17 |
| HMLTAPMPGIVTEILVKEGQRVRSGQPLMILEAMKMEHQVTAPKSGQIEKIYFSEGEKVDMGSDLLSIS | 0.5 |

| Sequence | soluble fraction (log2) |
| --- | --- |
| HMLTEEVEISLMDMTKPTQPATIKTTATIQKGATTVMPKQIKMPEGYEFYGNYKMDQPFELTMTFVVKKI | -1.17 |
| HMLTGESDNVEKSINKLGTENLALADQTNMGFKGTFINSGHGMAIVVKTGMQTELGKIASMIQIA | 0.218 |
| HMLTGISALKPTEAFPDEIFYEIFEIEDNIERTQYIESLRNTARQLKRVTEFNNLYKSFVLDYAQRQKQ | -1.93 |
| HMLTKAEEQVMDYLWKLEKAFVKDILDEFPEPKPAYTTVSTMVRILEKKGMVGYTAYGKNHQYYPL | -1.97 |
| HMLTKSELVFDTLKKRIIDGELEPGTELVISRISEEFNVSTIPVREAIKTLASEGLVEMEPHKSAKVAE | -0.0052 |
| HMLTKSVLGNQIKVLRLEKGLSQEEFGAPVDLSRSAVSQIESGQMYPSLESIGKIVKYYSTSWDNLVG | -0.846 |
| HMLTLDEKRRLQIMRVQVALTSLGLYNGRVDGVLNAETKLGLEFFQDLKGLPKSGTMTTPTLNALGVPA | -2.43 |
| HMLTLSGPEHAVVRALWPEPELDFDVLIRKTGLPSAQLMTLAMQLEMKKIIRRLPGRRLALMDDIRR | -3.98 |
| HMLTRSTVNVETGTAAIGLGKLYGVYDMSRKGLKYSFSVDSDAMTKVMEMLLPLGIKSLTVEPPS | -1.55 |
| HMLTTADLMMVHANSNKAIDYIVTDDNTKLTVDEPVTAKWITTADSIYRAVAYYNKVGDGKAQIVSVGN | -0.0103 |
| HMLTYPEHVRLRMIELRKTRSLSQSEFGTYLGLSYQTISSLELGRHEWSLAHIQTALLRFELPPNYF | -4.27 |
| HMLVATFGPTTGWEGREIIWDVDRFILVGHGAVPAAGVLDYDRRGQLIWAQPELRAWVVEVDRWETG | -2.22 |
| HMLVMTDNVIKAINDLLNYEAAAGIKKKQRYTAYQIYKELSEQGVYHGSRRRMEEVVSKLRVERNQI | -2.79 |
| HMLVPWKSANLFKLVEPNFRLAERKIPMLPSADREKLQEIMSDMKDAIVDNDKMALMKLDEELTDFLFDFV | -1.49 |
| HMLVSPLDEIPGIGRNRKKTLLNHFGSAKTIEGASLEDLKKVDGISELIAKKIYNYFHLNKNF | -0.85 |
| HMLWTDTKYVTVPDFVGKEPKEIESSYLYNIEYHGEGTKVISQQPAAFSRTIEGGTVRLYLG | -0.0387 |
| HMLYGRRFQVEGLNLERYLRAAADSGIPLKGARRFGRTLTGVAAEEHMAALEALARQGGWLFTPLEAVGAN | -0.948 |
| HMLYKNIAKKLRFRINSDEFAIGDVLPTERQLMEEYQASRVSIRKAIDELVAIDLIEKKQGSGTYIKQKEV | -1.89 |
| HMMESLGIRLKRLRKDKGLTQVELGKLSGVTGVTIGYWEKDLNEPGSKALSKLAQALGTTESYLLYGVS | -1.21 |
| HMMNNKEIGTRIAVLRKGMGDSQAKLAERLDVSPQAVSKWETGQSLPDIGNLLKLSWLFRTSINHILEGS | -2.18 |
| HMNADAPWSPFSPGFTGPMNRPVIGLVTKADLANPQRISLVESWLVQAGAQKVFVTSALENTGVDEMFIFL | -0.152 |
| HMNADLDIQNVNGNTPLWEAVMRYRGDGFFIEQLLKNGANPDIKNNYGVSPKSLARTIANYDVRRFFN | -0.281 |
| HMNADSLIGENIRISERVSNMDQTGMAVVHGQEWTVRTRNDNEIIEPGEEAKILAISGVKLIVEK | -0.136 |
| HMNAESLIGDRAVVTVAIERNKRGRVDVTGQDWAATTRDGEEIKVGQEVLVVGISGVALIVEER | -1.1 |
| HMNAIYKFVLGMIGKRSGVVTTLPSKKQVEFQANMLAEKFMQNGIDPNALKSPEQVKNVLANIDQ | -1.13 |
